# Source: paper PMC4841237, “Structure and stability of recombinant bovine odorant-binding protein: II. Unfolding of the monomeric forms” (PeerJ, 2016)
# B1: recombinant bovine odorant-binding protein (natural protein)
# chain: AQEEEAEQNLSELSGPWRTVYIGSTNPEKIQENGPFRTYFRELVFDDEKGTVDFYFSVKRDGKWKNVHVKATKQDDGTYVADYEGQNVFKIVSLSRTHLVAHNINVDKHGQTTELTELFVKLNVEDEDLEKFWKLTEDKGIDKKNVVNFLENEDHPHPE
# notes: In some samples 10 mM 1-octen-3-ol (OCT) was present; also called bOBP; bOBPwt; source: E. coli BL21(DE3), plasmid pT7-7-bOBP, purified (Ni+-agarose, HisGraviTrap)
# Molecular target: the molecule itself
# Experiment: SEC; gel filtration on Superdex-75 PC 3.2/30, 20 mM Na-phosphate pH 7.8, without GdnHCl and at low GdnHCl (below 1.5-2 M), with or without 10 mM OCT; protein 0.1-0.2 mg/ml; monomer to dimer
protein,measurement,value
B1,stoichiometry N,2
